Patent US20180155451A1 (published 2018)
Like-named read-outs stand apart in the source and are kept apart here.

Tests used:
[1] = biological target: T1, FcgRIIa type R extracellular domain with C-terminal His tag (human, UniProt P12318 34-217); assay: SPR (Biacore); KD of IL6R-B3/IL6R-L for this FcgR divided by KD of the sample
T1 construct: extracellular domain; also called FcgRIIaR; FcgRIIa R; not shown: His tag at the C terminus
T1 sequence (looked up): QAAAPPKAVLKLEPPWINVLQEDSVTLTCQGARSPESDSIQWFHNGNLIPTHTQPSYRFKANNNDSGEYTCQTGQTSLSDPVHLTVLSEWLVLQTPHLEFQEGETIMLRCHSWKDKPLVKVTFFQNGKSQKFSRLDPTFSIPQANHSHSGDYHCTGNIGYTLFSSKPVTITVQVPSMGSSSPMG
Experimental: (§1) Analysis of interaction between obj ective antibody and the FcγR was carried out using Biacore T100 (GE Healthcare), Biacore T200, Biacore A100, and Biacore 4000. HBS-EP+ (GE Healthcare) was used as the running buffer, and the measurement temperature was set to 25° C. Chips produced by immobilizing the antigen peptide by the amine coupling method to a Series S sensor Chip CM5 (GE Healthcare), chips produced by allowing preliminarily biotinylated antigen peptides to interact with and immobilize onto a Series S Sensor Chip SA (certified) (GE Healthcare), chips produced by immobilizing Protein L (ACTIGEN, BioVision) to Series S Sencor Chip CM5 (GE Healthcare), or chips produced by immobilizing Protein A/G (Thermo Scientific) to Series S Sencor Chip CM5 (GE Healthcare) were used. Antibodies of interest were captured onto these chips, and allowed to interact to each FcγR diluted with running buffer. To regenerate and repeatedly use the chip, the antibodies captured onto the chip were washed off by reacting 10 mM glycine-HCl, pH 1.5.

[2] = biological target: T2, FcgRIIa type H extracellular domain with C-terminal His tag (human, UniProt P12318 34-217); assay: as above
T2 construct: extracellular domain; also called FcgRIIaH; FcgRIIa H; not shown: His tag at the C terminus
T2 sequence (looked up): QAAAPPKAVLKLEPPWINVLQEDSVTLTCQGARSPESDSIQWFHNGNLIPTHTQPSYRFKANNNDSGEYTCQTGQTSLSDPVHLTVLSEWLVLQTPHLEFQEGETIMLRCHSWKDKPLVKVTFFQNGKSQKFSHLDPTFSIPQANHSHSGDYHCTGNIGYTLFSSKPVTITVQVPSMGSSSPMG
Experimental: as §1

[3] = biological target: T3, FcgRIIb extracellular domain with C-terminal His tag (human, UniProt P31994 43-217); assay: as above
T3 construct: extracellular domain; Expressed in FreeStyle293 cells; also called FcγRIIb; 2b; not shown: His tag at the C terminus
T3 sequence (looked up): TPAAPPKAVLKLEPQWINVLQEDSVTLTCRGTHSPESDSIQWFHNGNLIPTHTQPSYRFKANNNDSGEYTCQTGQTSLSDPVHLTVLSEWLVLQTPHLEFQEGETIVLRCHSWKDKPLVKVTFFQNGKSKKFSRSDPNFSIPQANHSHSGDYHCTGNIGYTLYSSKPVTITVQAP
Experimental: as §1

[4] = biological target: T1, FcgRIIa type R extracellular domain …; assay: as above; remark: listed apart in the source
Experimental: as §1

[5] = biological target: T2, FcgRIIa type H extracellular domain …; assay: as above; remark: listed apart in the source
Experimental: as §1

[6] = biological target: T3, FcgRIIb extracellular domain with …; assay: as above; remark: listed apart in the source
Experimental: as §1

[7] = biological target: T4, FcgRIa extracellular domain with C-terminal His tag (human, UniProt P12314 16-292); assay: SPR (Biacore), antibody captured on chip, soluble FcgR as analyte, kinetic 1:1 fit
T4 construct: extracellular domain; Expressed in FreeStyle293 cells; also called FcγRIa; not shown: His tag at the C terminus
T4 sequence (P12314 16-292): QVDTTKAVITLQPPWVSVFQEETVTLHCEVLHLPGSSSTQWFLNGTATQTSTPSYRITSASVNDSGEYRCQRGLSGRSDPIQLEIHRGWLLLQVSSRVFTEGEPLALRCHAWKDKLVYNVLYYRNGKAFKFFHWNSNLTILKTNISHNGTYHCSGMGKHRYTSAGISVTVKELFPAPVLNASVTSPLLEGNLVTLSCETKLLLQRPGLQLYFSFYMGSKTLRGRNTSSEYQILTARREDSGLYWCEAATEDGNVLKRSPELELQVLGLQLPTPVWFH

[8] = biological target: T1, FcgRIIa type R extracellular domain …; assay: as above
[9] = biological target: T2, FcgRIIa type H extracellular domain …; assay: as above
[10] = biological target: T3, FcgRIIb extracellular domain with …; assay: as above
[11] = biological target: T4, FcgRIa extracellular domain with …; assay: as above; remark: listed apart in the source
[12] = biological target: T1, FcgRIIa type R extracellular domain …; assay: as above; remark: listed apart in the source
[13] = biological target: T2, FcgRIIa type H extracellular domain …; assay: as above; remark: listed apart in the source
[14] = biological target: T3, FcgRIIb extracellular domain with …; assay: as above; remark: listed apart in the source
[15] = biological target: T5, FcgRIIIa type V extracellular domain with C-terminal His tag (human, UniProt P08637 17-208); assay: as above
T5 construct: extracellular domain; also called FcgRIIIaV; FcgRIIIa V; not shown: His tag at the C terminus
T5 sequence (P08637 17-208 F176V): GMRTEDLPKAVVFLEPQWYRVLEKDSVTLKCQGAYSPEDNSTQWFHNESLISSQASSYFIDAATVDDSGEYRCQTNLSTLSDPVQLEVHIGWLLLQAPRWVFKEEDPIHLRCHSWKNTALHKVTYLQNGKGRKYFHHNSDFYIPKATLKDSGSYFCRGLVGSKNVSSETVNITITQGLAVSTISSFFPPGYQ

[16] = biological target: T3, FcgRIIb extracellular domain with …; assay: SPR (Biacore); KD of the sample for FcgRIIaR divided by its KD for FcgRIIb (selectivity for FcgRIIb)
Experimental: as §1

[17] = biological target: T5, FcgRIIIa type V extracellular domain …; assay: SPR (Biacore), antibody captured on chip, soluble FcgR as analyte; too weak for kinetics, KD from steady-state 1:1 equation
Experimental: KD can be calculated by substituting the values of Rmax, RI, and C into this equation. The values of RI and C can be determined from the sensorgram of the measurement results and measurement conditions. Rmax was calculated according to the following method.

B1: IL6R-BP253/IL6R-L (antibody, human IgG1, kappa)
heavy: QVQLQESGPGLVKPSETLSLTCAVSGHSISHDHAWSWVRQPPGEGLEWIGFISYSGITNYNPSLQGRVTISRDNSKNTLYLQMNSLRAEDTAVYYCARSLARTTAMDYWGEGTLVTVSSASTKGPSVFPLAPSSKSTSGGTAALGCLVKDYFPEPVTVSWNSGALTSGVHTFPAVLQSSGLYSLSSVVTVPSSSLGTQTYICNVNHKPSNTKVDKKVEPKSCDKTHTCPPCPAPELLGGPSVFLFPPKPKDTLMISRTPEVTCVVVDVEHEDPEVKFNWYVDGVEVHNAKTKPREEQYNSTYRVVSVLTVLHQDWLNGKEYKCKVSNKAFPAPIEKTISKAKGQPREPQVYTLPPSRDELTKNQVSLTCLVKGFYPSDIAVEWESNGQPENNYKTTPPVLDSDGSFFLYSKLTVDKSRWQQGNVFSCSVMHEALHNHYTQESLSLSP
light: not shown
notes: Homodimer; IL6R-BP253 is IL6R-B3 with S267E and L328F
Question: How did the “Relative KD” value [1] turn out when B1 was run?
Answer: 480 ratio

Question: And the “Relative KD” value [2]?
Answer: 0.9 ratio

Question: What about the “Relative KD” value [3] of the same binder?
Answer: 349 ratio

Question: And the “Relative KD” value [4]?
Answer: 480 ratio

Question: What about the “Relative KD” value [5] of the same binder?
Answer: 0.9 ratio

Question: And the “Relative KD” value [6]?
Answer: 349 ratio

Question: What about the Kd [7] of the same binder?
Answer: 0.05 nM

Question: What about the Kd [8] of the same binder?
Answer: 2.3 nM

Question: What about the Kd [9] of the same binder?
Answer: 860 nM

Question: What about the Kd [10] of the same binder?
Answer: 8.9 nM

Question: What about the Kd [11] of the same binder?
Answer: 0.05 nM

Question: And the Kd [12]?
Answer: 2.3 nM

Question: What about the Kd [13] of the same binder?
Answer: 860 nM

Question: And the Kd [14]?
Answer: 8.9 nM

Question: What about the Kd [15] of the same binder?
Answer: 400 nM

Question: And the “KD(IIaR)/KD(IIb)” value [16]?
Answer: 0.3 ratio

Question: What about the Kd [17] of the same binder?
Answer: 7100 nM
